The values that follow come from the Human Domainome abundance scans (Beltran et al. 2025).

± gives the uncertainty stated by the source.

B1: Glucocorticoid receptor, residues 419 to 494; numbered along this chain, P04150 (parent)
chain: KLCLVCSDEASGCHYGVLTCGSCKVFFKRAVEGQHNYLCAGRNDCIIDKIRRKNCPACRYRKCLQAGMNLEARKTK

The variants in this series derive from B1. In words: abundance fitness (aPCA) (normalised: wild type 0, dead -1); higher = more abundant; growth selection in yeast, the domain comes from the species named. As to conditions: Homo sapiens.
Regarding KLCLVCSDEASGCHYGVLTCGSCKVFFKRAVEGQCNYLCAGRNDCIIDKIRRKNCPACRYRKCLQAGMNLEARKTK [H35C], the abundance fitness is -0.128 ± 0.065.

With KLCLVCSDEASGCHYGVLTCGSCKVFFKRAVEGQGNYLCAGRNDCIIDKIRRKNCPACRYRKCLQAGMNLEARKTK [H35G], the abundance fitness is 0.024 ± 0.032. The figure for KLCLVCSDEASGCHYGVLTCGSCKVFFKRAVEGQLNYLCAGRNDCIIDKIRRKNCPACRYRKCLQAGMNLEARKTK [H35L] is -0.025 ± 0.034; for KLCLVCSDEASGCHYGVLTCGSCKVFFKRAVEGQWNYLCAGRNDCIIDKIRRKNCPACRYRKCLQAGMNLEARKTK [H35W] it is -0.074 ± 0.039.

As to KLCLVCSDEASGCHYGVLTCGSCKVFFKRAVEGQDNYLCAGRNDCIIDKIRRKNCPACRYRKCLQAGMNLEARKTK [H35D], the abundance fitness amounted to 0.005 ± 0.066.

KLCLVCSDEASGCHYGVLTCGSCKVFFKRAVEGQSNYLCAGRNDCIIDKIRRKNCPACRYRKCLQAGMNLEARKTK [H35S]: the abundance fitness was -0.114 ± 0.04.

Consider KLCLVCSDEASGCHYGVLTCGSCKVFFKRAVEGQPNYLCAGRNDCIIDKIRRKNCPACRYRKCLQAGMNLEARKTK [H35P], for which the abundance fitness was found to be 0.003 ± 0.046.

For the variant KLCLVCSDEASGCHYGVLTCGSCKVFFKRAVEGQRNYLCAGRNDCIIDKIRRKNCPACRYRKCLQAGMNLEARKTK [H35R], the abundance fitness was -0.044 ± 0.033.

As to KLCLVCSDEASGCHYGVLTCGSCKVFFKRAVEGQQNYLCAGRNDCIIDKIRRKNCPACRYRKCLQAGMNLEARKTK [H35Q], the abundance fitness is -0.044 ± 0.048. Take KLCLVCSDEASGCHYGVLTCGSCKVFFKRAVEGQNNYLCAGRNDCIIDKIRRKNCPACRYRKCLQAGMNLEARKTK [H35N]: the abundance fitness was determined as 0.11 ± 0.08. For KLCLVCSDEASGCHYGVLTCGSCKVFFKRAVEGQMNYLCAGRNDCIIDKIRRKNCPACRYRKCLQAGMNLEARKTK [H35M] the value was 0.018 ± 0.047; for KLCLVCSDEASGCHYGVLTCGSCKVFFKRAVEGQFNYLCAGRNDCIIDKIRRKNCPACRYRKCLQAGMNLEARKTK [H35F], 0.013 ± 0.078. The figure for KLCLVCSDEASGCHYGVLTCGSCKVFFKRAVEGQANYLCAGRNDCIIDKIRRKNCPACRYRKCLQAGMNLEARKTK [H35A] is 0.018 ± 0.04; for KLCLVCSDEASGCHYGVLTCGSCKVFFKRAVEGQINYLCAGRNDCIIDKIRRKNCPACRYRKCLQAGMNLEARKTK [H35I] it is -0.071 ± 0.072; for KLCLVCSDEASGCHYGVLTCGSCKVFFKRAVEGQVNYLCAGRNDCIIDKIRRKNCPACRYRKCLQAGMNLEARKTK [H35V] it is -0.027 ± 0.033. Turning to KLCLVCSDEASGCHYGVLTCGSCKVFFKRAVEGQYNYLCAGRNDCIIDKIRRKNCPACRYRKCLQAGMNLEARKTK [H35Y], the abundance fitness was -0.08 ± 0.09. In the case of KLCLVCSDEASGCHYGVLTCGSCKVFFKRAVEGQKNYLCAGRNDCIIDKIRRKNCPACRYRKCLQAGMNLEARKTK [H35K], the abundance fitness is -0.002 ± 0.054. The figure for KLCLVCSDEASGCHYGVLTCGSCKVFFKRAVKGQHNYLCAGRNDCIIDKIRRKNCPACRYRKCLQAGMNLEARKTK [E32K] is 0.01 ± 0.049; for KLCLVCSDEASGCHYGVLTCGSCKVFFKRAVNGQHNYLCAGRNDCIIDKIRRKNCPACRYRKCLQAGMNLEARKTK [E32N] it is -0.059 ± 0.059.

Regarding KLCLVCSDEASGCHYGVLTCGSCKVFFKRAVHGQHNYLCAGRNDCIIDKIRRKNCPACRYRKCLQAGMNLEARKTK [E32H], the abundance fitness was -0.058 ± 0.073. Consider KLCLVCSDEASGCHYGVLTCGSCKVFFKRAVYGQHNYLCAGRNDCIIDKIRRKNCPACRYRKCLQAGMNLEARKTK [E32Y], for which the abundance fitness is -0.131 ± 0.065. Take KLCLVCSDEASGCHYGVLTCGSCKVFFKRAVSGQHNYLCAGRNDCIIDKIRRKNCPACRYRKCLQAGMNLEARKTK [E32S]: the abundance fitness is -0.049 ± 0.034. Regarding KLCLVCSDEASGCHYGVLTCGSCKVFFKRAVLGQHNYLCAGRNDCIIDKIRRKNCPACRYRKCLQAGMNLEARKTK [E32L], the abundance fitness was -0.073 ± 0.032. For KLCLVCSDEASGCHYGVLTCGSCKVFFKRAVCGQHNYLCAGRNDCIIDKIRRKNCPACRYRKCLQAGMNLEARKTK [E32C] the value was -0.031 ± 0.056; for KLCLVCSDEASGCHYGVLTCGSCKVFFKRAVPGQHNYLCAGRNDCIIDKIRRKNCPACRYRKCLQAGMNLEARKTK [E32P], -0.388 ± 0.073. For KLCLVCSDEASGCHYGVLTCGSCKVFFKRAVRGQHNYLCAGRNDCIIDKIRRKNCPACRYRKCLQAGMNLEARKTK [E32R] the value was -0.021 ± 0.032; for KLCLVCSDEASGCHYGVLTCGSCKVFFKRAVGGQHNYLCAGRNDCIIDKIRRKNCPACRYRKCLQAGMNLEARKTK [E32G], -0.04 ± 0.036; for KLCLVCSDEASGCHYGVLTCGSCKVFFKRAVFGQHNYLCAGRNDCIIDKIRRKNCPACRYRKCLQAGMNLEARKTK [E32F], -0.192 ± 0.074. For KLCLVCSDEASGCHYGVLTCGSCKVFFKRAVVGQHNYLCAGRNDCIIDKIRRKNCPACRYRKCLQAGMNLEARKTK [E32V] the value was -0.051 ± 0.036; for KLCLVCSDEASGCHYGVLTCGSCKVFFKRAVWGQHNYLCAGRNDCIIDKIRRKNCPACRYRKCLQAGMNLEARKTK [E32W], -0.201 ± 0.046; for KLCLVCSDEASGCHYGVLTCGSCKVFFKRAVDGQHNYLCAGRNDCIIDKIRRKNCPACRYRKCLQAGMNLEARKTK [E32D], -0.015 ± 0.07. For the variant KLCLVCSDEASGCHYGVLTCGSCKVFFKRAVTGQHNYLCAGRNDCIIDKIRRKNCPACRYRKCLQAGMNLEARKTK [E32T], the abundance fitness is -0.007 ± 0.041. The figure for KLCLVCSDEASGCHYGVLTCGSCKVFFKRAVQGQHNYLCAGRNDCIIDKIRRKNCPACRYRKCLQAGMNLEARKTK [E32Q] is -0.08 ± 0.046; for KLCLVCSDEASGCHYGVLTCGSCKVFFKRAVEHQHNYLCAGRNDCIIDKIRRKNCPACRYRKCLQAGMNLEARKTK [G33H] it is -0.006 ± 0.067.

On to KLCLVCSDEASGCHYGVLTCGSCKVFFKRAVEDQHNYLCAGRNDCIIDKIRRKNCPACRYRKCLQAGMNLEARKTK [G33D], for which the abundance fitness worked out at 0.05 ± 0.066.

KLCLVCSDEASGCHYGVLTCGSCKVFFKRAVEQQHNYLCAGRNDCIIDKIRRKNCPACRYRKCLQAGMNLEARKTK [G33Q]: the abundance fitness is -0.017 ± 0.048.
